Test: soluble on expression in E. coli; label from the status in PepcDB or PDB records

| Sequence | soluble on expression in E. coli |
| --- | --- |
| MSLSIPADIASLISDKYKSAFDNGNLKFIQTETTKTKDPKTSMPYLISHMPSLIEKPERGQTPEGEDPLGKPEEELTVIPEFGGADNKAYKLLLNKFPVIPGHTLLVTNEYQHQTDALTPTDLLTAYKLLCALDNEESDKRHMVFYNSGPASGSSLDHKHLQILQMPEKFVTFQDRLCNGKEHFLPTFNTEPLQDAKVSFAHFVLPMPESEETVDEDLLAMCYISILQRALTFFQDWLNENPELKKSYNLMLTKEWICVVPRSKAFSDEMKIGFNSTGYCGMILTKNDEVFSKITEKPELINDILLECGFPNTSGQKPNEYNYEGHHHHHH | soluble |
| MSLSIYSVGRWICRSYFRLFFKVEVIGASRIPDEGGLLLCCNHFSNYDPPFVGSFFPRKVRFMAKEELFRFKPLQSLMMAVGAFPVRRGAGDKQALKVGLKLLKEGETLGIFPEGTRSKDGQIGKGLSGVGFFALRSDATVVPCAIVGKYRFFRKVRFVIGEPVPMEELKERKASAEEATEVIMKAIRKLHEQNQMSEGHHHHHH | soluble |
| MSLSKEKEVLLNEEIRADEIRCVGDDGKVYGIISSDEALEIANRLGLDLVMIAADAKPPVCKIMDYGKFRYQQEKKQKEAKKKQKVIDIKEIKLSVKIAQNDINYKVKHALEFLEQGKHVRFRVFLKGREMATPEAGVALLEKIWTMIENEANRDKEPNFEGRYVNMLVTPKKAEGHHHHHH | soluble |
| MSLSKHSHYKDKKKFYKKVEQFKEFQERISVHFQNEKLLYQAFTHSSYVNEHRKKPYEDNERLEFLGDAVLELTISRFLFAKYPAMSEGDLTKLRAAIVCEPSLVSLAHELSFGDLVLLGKGEEMTGGRKRPALLADVFEAFIGALYLDQGLEPVESFLKVYVFPKINDGAFSHVMDFKSQLQEYVQRDGKGSLEYKISNEKGPAHNREFEAIVSLKGEPLGVGNGRSKKEAEQHAAQEALAKLQKHHTKQEGGSHHHHHH | soluble |
| MSLSKLPLLPTTVIGSYPRPKWLRESIRLHKAGKMSNEDLQEAFNDAVIAVFQDHYKAGVDVPTDGEVRRDEMVEFFAERIKGFKFYGPVRVWGTAYYRKPSVVSKIEYREPMLVDEFTFAKSVSYTDNLKITITGPYTIAEWSYNEYYRNKKDLVFDLAKAINQEIKNLVEAGAKIIQIDEPALHTRKEDVSWGVEAVNEAVKGVNAKLVMHICYGDYSFVAPYFNEIKVDQINFALKIYNYKPLELLKKYGFDKELGAGVVDVHNRKVETSEEVANDIRKILEYFPPEKVWINPDCGLKLLSRKIAYQKLVSMVEGTKVVREELKRKGYSVDEGHHHHHH | not soluble |
| MSLSKNKYLFKYLIVDRKKLDPSYTYKYDNIQWNHKIIAIGDIHGDVESLKLILRHSNLIDENDEWIAEDVMLVQVGDILDRGVFGTYIYDYLLKLQKDAIKKNSKVILIMGNHEQLNLCGAFHYVNESEVMLFFQNNRNNRLFSFTNKNGYYFKKLIRLPVIVKINNIIFTHGGISKHMSEYDINTINLKTRLQIENKCKMFQFEKYNYLSKEGVLWNNEISHQVKLQPKKTCKHLRNILKKYNAKGLVVGHTRQKSHEIQTYCNNSFFLIDTGMSLFMNNGQPYPNYLQIEKGKFKTVHLIVQEYNRKEGHHHHHH | not soluble |
| MSLSKPLFIFEMANNHMGNVEHGVALIRAIRESCQGFDFDFGFKLQYRNLDTFIHSSFKGRDDVKYVKRFEETRLQPEQMQKLVAEMKANGFKAICTPFDEESVDLIEAHGIEIIKIASCSFTDWPLLERIARSDKPVVASTAGARREDIDKVVSFMLHRGKDLTIMHCVAEYPTPDDHLHLARIKTLRQQYAGVRIGYSTHEDPDLMEPIMLAVAQGATVFEKHVGLPTDQYGINNYSANPEQVRRWLAAAARALAMLGDGEDDAVSETEQASLRSLRRGVFATRPVAAGEALTADNVSFAFPPVEGQLTANEWSKYVRYTAKTPIAADAPVMAADLEPVNEGHHHHHH | soluble |
| MSLSLDESNTALAEEFDNWDLEFKLWELVDRLFRFRALFSNKAKTELLREYDFSSMGIKQENFLRKNPAIRELSIIILWLQSHTPSLVGDETESYQTKWKNTAMAVANSDFDVLASRATDADLIDKLDIDAPLRSNRSIHPADESNDSKVFAQIYKLLLQDRVQDAIDIANNTGNYALALILVGATQEYFDPVLDKEGHHHHHH | soluble |
| MSLSLREVSQLLCQLKVLDQKITKVFEEQVGLSLTRYELLMILKERQPCLQTEIQEHLKIDSGAVTRHLKILEEKQYVTRQRNPENNREVLVHLTEKAQQELQQCTAKQQTVTEIIPSTFTKDDCRQLKELLTKLDQSITTKEV | not soluble |
| MSLSNFYKLLKEKFPRKEDIVTEMINLEAICQLPKGTEYFISDLHGEYDAVDYLLRTGAGSIRAKLLDCFDWQKIVAVDLDDFCILLYYPKEKLAFDKMNLSASAYKTKLWEMIPLQIQVLKYFSSKYTKSKVRKQLSGKFAYIIEELLAEIDRNPEKKSYFDTIIEKLFELDQVEDLIIVLSQTIQVLIIDHLHVVGDIYDRGRYPDRILNRLMAFPNLDIQWGNHDVTWMGAASGSYLCMVNVIRIAARYNNITLIEDRYGINLRRLVDYSRRYYEPLPSFVPILDGEEMTHPDELDLLNMIQQATAILQFKLEAQLIDRRPEFQMHNRQLINQVNYKDLSISIKEVVHQLKDFNSRCIDSKNPSRLTSEEEELLQQLMIAFQTSESLKKHIDFLFEKGSMYLTYNDNLLFHGCIPMHSNGDFKSFKIAGKTYGGRDLLDLFESQIRLAYARPEKHDDLATDIIWYLWCGENSSLFGKNAMTTFERYYVSDKVTHQERKNPYFKLRDKDDICTALLQEFDLPKFGHIVNGHTPVKEKNGEQPIKANGKMLVIDGGFAKGYQKNTGLAGYTLIYNSYGIQLISHLPFTSIEEVLSGTNYIIDTKRLVEEAKDRILVKDTTIGQKLTKEIKDLDHLYRHFQEYDEGHHHHHH | soluble |
| MSLSQHIRKLDSDVSERLKSQACTVSLASAVREIVQNSVDAHATTIDVMIDLPNLSFAVYDDGIGLTRSDLNILATQNYTSKIRKMNDLVTMKTYGYRGDALYSISNVSNLFVCSKKKDYNSAWMRKFPSKSVMLSENTILPIDPFWKICPWSRTKSGTVVIVEDMLYNLPVRRRILKEEPPFKTFNTIKADMLQILVMHPMISLNVQYTDKLRINTEVLFRSKNITEGLTKHQQMSQVLRNVFGAIIPPDMLKKVSLKFNEYQIEGIISKMPVGLKDLQFIYINGRRYADSAFQGYVDSLFQAQDFGEKGMSLLKTKSVGKPYRSHPVFILDVRCPQTIDDLLQDPAKKIVKPSHIRTIEPLIVKTIRSFLTFQGYLTEGHHHHHH | not soluble |
| MSLSQNSESGNYRKYTSRNPLMGIVVSGFMKDLSETIAPLEEVGSIIDIGCGEGFIINCLNRKDITGVDVSKKALNIAKQKNPGCNFCTGSIYDLSFKKSSFDLVIATEVLEHLENPERALREIKRISKKYCIFSVPNEPYFRTMNFLRGKNLTRLGNDIEHLQNWSTKEFVKLVGRHFNVVEVKRPFPWTMVLCEKEGHHHHHH | not soluble |
| MSLSQRTDCSLARRSSTVRKQDSSQAIPLVVESCIRFISRHGLQHEGIFRVSGSQVEVNDIKNAFERGEDPLAGDQNDHDMDSIAGVLKLYFRGLEHPLFPKDIFHDLMACVTMDNLQERALHIRKVLLVLPKTTLIIMRYLFAFLNHLSQFSEENMMDPYNLAICFGPSLMSVPEGHDQVSCQAHVNELIKTIIIQHENIFPSPREEGHHHHHH | soluble |
| MSLSQTTNIKEQTDTGLAPPAPAITTNSAAIEEQANSSIRKLYHTLNTMPNTSMADRISQISAYFKGTKYILGSLGEGPNARYDQFPRYRVDGFDCDTYVNTVLSLALANSLESFQECLKHTRYKNGKRSYINRNHFTSIDWNNYNQKRGLLKDITFSIRNEKKQPVALYANALINKPQWYNHKTIDTIRLQKQDKNEQEKRLVELKAKGKTLETSLSNVPYIPFTALFSENKPNLHLFSQIPNGAVIEIIRPNWDLRQQIGTELDISHLGFAIWINNELFFRQASSQYGKVVDVSLIDYLDKARSSPTIKGINIQVVLPEKPVSNGCQLFDIREGHHHHHH | soluble |
| MSLSRIIMLIPTGTSVGLTSVSLGVIRAMERKGVRLSVFKPIAQPRTGGDAPDQTTTIVRANSSTTTAAEPLKMSYVEGLLSSNQKDVLMEEIVANYHANTKDAEVVLVEGLVPTRKHQFAQSLNYEIAKTLNAEIVFVMSQGTDTPEQLKERIELTRNSFGGAKNTNITGVIVNKLNAPVDEQGRTRPDLSEIFDDSSKAKVNNVDPAKLQESSPLPVLGAVPWSFDLIATRAIDMARHLNATIINEGDINTRRVKSVTFCARSIPHMLEHFRAGSLLVTSADRPDVLVAACLAAMNGVEIGALLLTGGYEMDARISKLCERAFATGLPVFMVNTNTWQTSLSLQSFNLEVPVDDHERIEKVQEYVANYINADWIDSLTATSERSRRLSPPAFRYQLTELARKAGKRIVLPEGDEPRTVKAAAICAERGIATCVLLGNPAEINRVAASQGVELGAGIEIVDPEVVRESYVGRLVELRKNKGMTETVAREQLEDNVVLGTLMLEQDEVDGLVSGAVHTTANTIRPPLQLIKTAPGSSLVSSVFFMLLPEQVYVYGDCAINPDPTAEQLAEIAIQSADSAAAFGIEPRVAMLSYSTGTSGAGSDVEKVREATRLAQEKRPDLMIDGPLQYDAAVMADVAKSKAPNSPVAGRATVFIFPDLNTGNTTYKAVQRSADLISIGPMLQGMRKPVNDLSRGALVDDIVYTIALTAIQSAQQQEGHHHHHH | not soluble |
| MSLSRLPLIGVTACSRQIGLHAYHISGDEYVHAVASAAQGVPVIIPSMAELLSPSDILDGLDGILFTGSPSNIEPFHYQGPASAPGTAHDSARDAATLPLLSAAVASGVPVLGICRGFQEMNVALGGSLHQNVQQVQPFMDHRHAEQPGQPLDAWYAPAHDLHIKAGGVLAGLGLPERIQVNSIHAQGVERLAPGLRVEALAPDGLVEAVSVEASKAFALGVQWHPEWQVSCNPHYLAIFQAFGDACRKRARQRDAEASHKEGHHHHHH | soluble |
| MSLSTLKRDHIKKNLRDTEYDVVIVGGGITGAGIALDASNRGMKVALVEMQDFAQGTSSRSTKLVHGGLRYLKQLQVGVVAETGKERAIVYENGPHVTTPEWMLLPMHKGGTFGKFSTSIGLAMYDRLAGVKKSERKKMLSKQETLNKEPLVKRDGLKGGGYYVEYRTDDARLTIEVMKKAAENGAEILNYTKSEHFTYDSNKKVNGIEVLDMIDGETYAIKAKKVINASGPWVDEVRSGDYARNNKQLRLTKGVHVVIDQSKFPLGQAVYFDTEKDGRMIFAIPREGKAYVGTTDTFYDNEKATPLTTQEDRDYLINAINYMFPTVNVKDEDIESTWAGIRPLILEKGKDPSEISRKDEVWEGESGLLTIAGGKLTGYRHMALEIVDLLAKRLKQEYGLKFESCATKNLKISGGDVGGSKNFEHFVEQKVDAAKGFGIDEDVARRLASKYGSNVDQLFNIAQTAPYHDSKLPLEIYVELVYSIQQEMVYKPTDFLVRRSGKLYFNIQDVLDYKNAVIDVMADMLNYSETQKEAYTEEVEVAIDEARTGNDQPATKALEHHHHHH | soluble |
| MSLSVAIIGPGAVGTTIAYELQQSLPHTTLIGRHAKTITYYTVPHAPAQDIVVKGYEDVTNTFDVIIIAVKTHQLDAVIPHLTYLAHEDTLIILAQNGYGQLEHIPFKNVCQAVVYISGQKKGDVVTHFRDYQLRIQDNALTRQFRDLVQDSQIDIVLEANIQQAIWYKLLVNLGINSITALGRQTVAIMHNPEIRILCRQLLLDGCRVAQAEGLNFSEQTVDTIMTIYQGYPDEMGTSMYYDIVHQQPLEVEAIQGFIYRRAREHNLDTPYLDTIYSFLRAYQQNEGHHHHHH | soluble |
| MSLSWYEEWFWSDAYTRVYDHRDDAEAEQLVDLIEHEIAPASGAHILDIGCGRGRHARALVRRGWQVTGLDLSEDAVAAARSRVADDDLDVRASFRVGDMRTPVCDGCADGVVNLFTSFGYFDADAENERALAAMATALRPGGWFLQDFLNAPQVAESLGASVYETEDGRTIHQDRWIEDGRVNKKITVRQNGHTETFQESVRLYTRSDLTAMYERVGLEVVALFGDYDGGNYVPDESPRLLLHAVRPTEGHHHHHH | soluble |

— the DeepSol protein solubility set
